Results on eight molecules are retold here after patent US20260201030A1, “ANTIBODY, ANTIBODY-DRUG CONJUGATE THEREOF AND USE THEREOF” (EVOPOINT BIOSCIENCES CO., LTD., priority 2021, published 2026).

Common to all, as to type: binding
Assay [1] addresses T1, human Claudin18.2 (Homo sapiens, UniProt P56856).
T1 construct: expressed in transfected cells
Kind of assay: Cell-based ELISA affinity of murine antibodies on HEK293T-Claudin18.2 (human) cells. How it is done: (§1) The affinity of the anti-human Claudin18.2 murine monoclonal antibodies was evaluated by cell-based ELISA. The experimental procedures were as follows: The day before the experiment, HEK293T-Claudin18.2 (human) cells were plated in a 96-well plate at 5×10^4 cells/well. On the day of the experiment, the supernatant was removed, the cells in each well were washed once with 300 μL of PBS, and 100 μL of 4% paraformaldehyde was added to each well for fixation at room temperature for 20 min. Paraformaldehyde was then removed, and the cells in each well were washed twice with 300 μL of PBS. 100 μL of 2% BSA (in PBS) was added to each well, and the mixture was blocked at 37° C. for 2 h. After removing the blocking solution, each antibody subjected to gradient dilution (diluted with 2% BSA (in PBS), starting at […], in a 3-fold gradient, for a total of 11 concentration points) was added to the plate at 100 μL/well, and the mixture was incubated at 37° C. for 2 h. The supernatant was removed, and the cells in each well were washed three times with 300 μL of PBST. 100 μL of an anti-mouse IgG HRP secondary antibody (Jackson, cat #115-035-003) in 2% BSA was added to each well, and the mixture was incubated at 37° C. for 1 h. The secondary antibody was then removed, and the cells in each well were washed five times with 300 μL of PBST, followed by the addition of 100 μL of a TMB substrate (Huzhou InnoReagents Co., Ltd.) per well for color development for 5-20 min. The reaction was stopped by adding 50 μL of 2 N HCl to each well, and OD450 nm values were read on a microplate reader (manufacturer: MD, model: SpectraMax). The values obtained were plotted by GraphPad Prism to calculate the EC50 value.

The target of assay [2] is T1, human Claudin18.2. Kind of assay: Cell-based ELISA affinity of humanized antibodies on L929-Claudin18.2 (human) cells. Particulars: L929-Claudin18.2 cells. (In an ELISA, binding on a coated surface is turned into a signal by an enzyme label.)
For assay [3], the target named is T1, human Claudin18.2. Kind of assay: Cell-based ELISA affinity of humanized antibodies on HEK293T-Claudin18.2 (human) cells. Particulars: HEK293T-Claudin18.2 cells. How it is done: as §1
The affinity of the anti-human Claudin18.2 humanized monoclonal antibodies was determined by cell-based ELISA. The cell-based ELISA was conducted as described in Example I-3.

In the next assay the target is T2, human Claudin18.1 (Homo sapiens, UniProt P56856).
T2 construct: expressed in transfected cells
The experiment in a line: FACS specificity of humanized antibodies on HEK293T-Claudin18.1 (human) cells. The note with it: antibody 50 μg/mL, APC secondary antibody. Here is the method:
The specificity of the anti-human Claudin18.2 humanized monoclonal antibodies was determined by flow cytometry (FACS). The experimental procedures were as follows: HEK293T-Claudin18.1 (human) cells were digested, collected by centrifugation, washed three times with pre-cooled PBS, resuspended in 1% BSA (in PBS), and added to a 96-well pointed bottom plate at 3×10^5 cells/well. Each test antibody with a final concentration of 50 μg/mL was added, and the mixture was incubated at 4° C. for 1 h. The cells were washed three times with pre-cooled PBS, and then 1 μL of a fluorescent secondary antibody (APC: Biolegend-410712 or PE: BioLegend-410708) was added to each well. The mixture was incubated at 4° C. for 0.5 h, and the cells were washed three times with pre-cooled PBS, then resuspended, and assayed on a flow cytometer. For reference, anti-human Claudin18.1 positive control antibodies (positive control antibody-1 and positive control antibody-2) were included in the experiment.

B1: 25C7A5: anti-human Claudin18.2 murine monoclonal antibody, VH SEQ ID NO: 21, VL SEQ ID NO: 22 (antibody, V domains shown)
VH: EVQLQQPGAELVKPGTSVKLSCKASGYTFTNYWLHWVRQRPGQGLEWIGMMHPISGSSNNNERFKSKATLTVDKSSTTAYMQLSRMTSEDSAVYYCARGLLSAMDYWGQGTSVTVSS
VL: CIVLTQSPKSMSMSVGERVTLSCKASENVKTYVSWYQQRPEQSPKLLIYEASNRYTGVPDRFTGSGSATVFTLTISSVQTEDLANYFCGQTYSFPPTFGSGTKLEIK
Consider B1, for which the “Affinity HEK293T-18.2 EC50” value in the assay with human Claudin18.2 [1] was determined as 10.49 ng/mL.

B2: 32F7A6: anti-human Claudin18.2 murine monoclonal antibody, VH SEQ ID NO: 52, VL SEQ ID NO: 53 (antibody, V domains shown)
VH: QIQLVQSGPELRKPGETVKISCKASGYTFTAYTMGWVKQAPGKGLEWMAWINTYSGVPTYAADFKGRFAFSLETSASTAYLLINNLKNEDTATYFCARGVRGNSMDYWGQGTSVTVSS
VL: DIVETQSPSSLTVTVGERVTLSCKSSQSLLNSGNQRNYLTWSQQKPGQPPKLLIYWASTRESGVPNRFTGGGSGTYFTLTISSVQVEDLAVYYCQNTYSFPFTFGTGTKLEIK
In the case of B2, the “Affinity HEK293T-18.2 EC50” value with human Claudin18.2 [1] stood at 2.399 ng/mL.

B3: 2D3A11-HZ2: humanized anti-Claudin18.2 antibody, VH SEQ ID NO: 40, VL SEQ ID NO: 39 (antibody, V domains shown)
VH: QVQLVESGAEVKKPGASVKVSCKASGYTFTSYVVHWVRQAPGQGLEWMGYINPYNADSKYSQEFQGRATLTSDKSASTAYMELSSLRSEDMAVYYCSRSYYGNSFDVWGQGTLVTVSS
VL: DIVMTQSPDSLAVSLGERATINCKSSQSLLNSGNQKNYLTWYQQKPGQSPKLLFFWASTRQSGVPDRFSGSGSGTDFTLTISSLQAEDVAVYYCQNDYYFPFTFGQGTKVEIK
Consider B3, for which the “Affinity detected by cell-based ELISA (EC50, ng/mL) L929-Claudin18.2” value in the assay with human Claudin18.2 [2] was 25.62 ng/mL. Further, in the assay with human Claudin18.2 [3], the “Affinity detected by cell-based ELISA (EC50, ng/mL) HEK293T-Claudin18.2” value is given as 14.01 ± 2.29(N = 2) ng/mL. In the assay with human Claudin18.1, the “Mean APC fluorescence signal value” turned out to be 382, the “Median APC fluorescence signal value” came out at 329 and the “Positive rate (%)” value came out at 1%.

B4: 8H11A10: anti-human Claudin18.2 murine monoclonal antibody, VH SEQ ID NO: 44, VL SEQ ID NO: 45 (antibody, V domains shown)
VH: QVQLKESGPVLVAPSQSLSITCTVSGFSLTNYGVHWVRQPPGKGLEWLGVIWSGGRTNYNSALMSRLSISKDNSKSQVFLKMNSLQTDDTAMYYCAKRDGIYGDYWGQGTSVTVSS
VL: DIVETQSPSSLTVTAGEKVTMSCKSSQSLLNSGNQKNYLTWYQQKPGQSPKLLIYWASTRESGVPDRFTGSGFGTDFTLTISSVQAEDLAVYYCQNDYIYPLTFGAGTKLELK
In the case of B4, the “Affinity HEK293T-18.2 EC50” value with human Claudin18.2 [1] was 12.32 ng/mL.

B5: 23F2F2: anti-human Claudin18.2 murine monoclonal antibody, VH SEQ ID NO: 48, VL SEQ ID NO: 49 (antibody, V domains shown)
VH: QVQLKESGGGLVQPGGSMKLSCAASGFTFSDAWMNWVRQSPEKGLEWVAEIRNKADYHATHYVESVTGRFTISRDDSKSSVYLQMNRLRAEDTGIYYCTRNYGSRFDYWGQGTTLTVSS
VL: DIVETQSPSSLTVTAGEKVTMSCKSSQSLLNSGNQRNYLTWYQQKPGHPPKLLIYWASTRESGVPDRFTGSGSGTDFTLTVTSVQAEDLAVYYCQNDYFYPLAFGTGTKLELK
On to B5, for which the “Affinity HEK293T-18.2 EC50” value with human Claudin18.2 [1] was 6.015 ng/mL.

B6: 40G11H2: anti-human Claudin18.2 murine monoclonal antibody, VH SEQ ID NO: 50, VL SEQ ID NO: 51 (antibody, V domains shown)
VH: EVQLQQSGAELARPGASVKLSCKASGYTFTSYGIRWVKQRTGQGLEWIGEIYPRGGNTYYDEKFKGKATLTADKSSSTAYMGLRSLTSEDSAVYFCARADYGNSFAYWGQGTLVTVSA
VL: DIVMTQSPSSLTVTAREKVTMSCKSSQSLLNSGNQKNYLTWYHQKPGQPPKLLIYWASTRESGVPDRFTGSGSGTDFTLTISSVQAEDLAVYFCQNAYFYPFTFGTGTKLEIK
Turning to B6, in the assay with human Claudin18.2 [1], the “Affinity HEK293T-18.2 EC50” value was 7.376 ng/mL.

B7: 2D3A11: anti-human Claudin18.2 murine monoclonal antibody, VH SEQ ID NO: 23, VL SEQ ID NO: 24 (antibody, V domains shown)
VH: EVQLQQSGPELVKPGASVRMSCKASGYTFTSYVVHWVKQKPGQGLEWIGYINPYNADSKYNERFKGKATLTSDKSSNSAYMELSSLTSEDSAVYYCSRSYYGNSFDVWGAGTTVTVSS
VL: DIVMTQSPSSLTVTTGEKVTMSCKSSQSLLNSGNQKNYLTWYQQKPGQSPKLLFFWASTRQSGVPDRFTGSGSGTYFTLTISSVQAEDLAVYYCQNDYYFPFTFGTGTKLEIK
As to B7, the “Affinity HEK293T-18.2 EC50” value with human Claudin18.2 [1] was found to be 8.143 ng/mL.

B8: 1A6G10: anti-human Claudin18.2 murine monoclonal antibody, VH SEQ ID NO: 46, VL SEQ ID NO: 47 (antibody, V domains shown)
VH: QVQLKESGGGLVKPGGSLKLSCAASGFTFSSYAMSWVRQTPEKRLEWVAAIHSNGGSTYNSDTMRDRFTISRDHAKNTLYLQMSSLRSEDTALYYCGRQSFGNALDYWGQGTSVTVSS
VL: DIQMTQSPSSLTVTAGEKVTLTCKSSQSLLNSGNQKNYLTWYQQKPGQPPKLLIYWASTRESGVPDRFTGSGSGTFFTLTISSVQAEDLAVYFCQNDYVYPFTFGAGTQLELK
In the case of B8, the “Affinity HEK293T-18.2 EC50” value with human Claudin18.2 [1] was 5.024 ng/mL.
